Each block holds one molecule with its values, some of them ahead of it.
Experiments:
[1] = target: T1, PBS3 (AtGH3.12; His-PBS3) (Arabidopsis thaliana, UniProt Q9LYU4); assay: HPLC of pABA-Glu formation; type: biochemical
T1 sequence (Q9LYU4 1-575): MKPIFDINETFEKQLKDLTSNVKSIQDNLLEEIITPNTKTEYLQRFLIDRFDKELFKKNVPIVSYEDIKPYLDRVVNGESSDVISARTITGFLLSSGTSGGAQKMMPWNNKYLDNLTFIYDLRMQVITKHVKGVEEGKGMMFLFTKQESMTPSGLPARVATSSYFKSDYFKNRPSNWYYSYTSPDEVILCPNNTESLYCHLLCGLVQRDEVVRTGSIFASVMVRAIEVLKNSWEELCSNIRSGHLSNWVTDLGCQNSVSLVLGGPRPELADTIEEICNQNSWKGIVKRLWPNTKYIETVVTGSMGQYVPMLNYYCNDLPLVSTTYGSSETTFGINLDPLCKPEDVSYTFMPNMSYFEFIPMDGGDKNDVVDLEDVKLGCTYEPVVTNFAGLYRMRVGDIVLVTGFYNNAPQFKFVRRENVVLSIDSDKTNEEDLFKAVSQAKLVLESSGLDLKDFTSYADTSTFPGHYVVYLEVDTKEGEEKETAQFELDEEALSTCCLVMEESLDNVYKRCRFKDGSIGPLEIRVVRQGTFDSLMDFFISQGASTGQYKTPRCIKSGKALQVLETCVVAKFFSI

[2] = target: T1, PBS3 (AtGH3.12; His-PBS3); assay: coupled adenylation assay; type: biochemical; conditions: 150 μM pABA, 5 mM ATP, 5 mM MgCl2, pH 7.4
[3] = substrate: C=C(O[C@H]1C=CC=C(C(=O)O)[C@@H]1O)C(=O)O; assay: coupled spectrophotometric assay; type: biochemical, Pseudomonas aeruginosa; conditions: modified ICS assay conditions (100 mM Tris, pH 7.7)
purified protein [4] = substrate: Nc1ncnc2c1ncn2[C@@H]1O[C@H](COP(=O)(O)OP(=O)(O)OP(=O)(O)O)[C@@H](O)[C@H]1O; assay: purified protein; conditions: with 10 mM 4-HBA, Mg2+, pH 7.4, 30 °C
purified protein [5] = substrate: O=C(O)c1ccccc1; assay: purified protein; conditions: 10 mM Glu, 5 mM ATP, 5 mM MgCl2, pH 8.5
purified protein [6] = substrate: O=C(O)c1ccc(O)cc1; assay: purified protein; conditions: 10 mM Glu, 5 mM ATP, 5 mM MgCl2, pH 8.5
purified protein [7] = substrate: Nc1ccc(C(=O)O)cc1; assay: purified protein; conditions: 10 mM Glu, 5 mM ATP, 5 mM MgCl2, pH 8.5

IC50 [1]: ~15 µM
Molecule: O=C(O)c1ccccc1O [salicylate]

Molecule: O=C(O)c1cc(Cl)nc(Cl)c1 [INA]
Fractional inhibition (300 μM) [2]: 0.70 fraction

B1: PchB (isochorismate pyruvate lyase) (Pseudomonas aeruginosa PAO1) (protein)
chain: MKTPEDCTGLADIREAIDRIDLDIVQALGRRMDYVKAASRFKASEAAIPAPERVAAMLPERARWAEENGLDAPFVEGLFAQIIHWYIAEQIKYWRQTRGAA
Km [3]: 60 µM

B2: PBS3 (AtGH3.12; His-PBS3) (Arabidopsis thaliana) (protein)
chain: T1 sequence (Q9LYU4 1-575)
Km (purified protein [4]): 791 µM
Km (purified protein [5]): 867 µM
kcat (purified protein [5]): 0.066 s⁻¹
kcat/Km (purified protein [5]): 76.7 M⁻¹ s⁻¹
Km (purified protein [6]): 459 µM
kcat (purified protein [6]): 0.339 s⁻¹
kcat/Km (purified protein [6]): 740 M⁻¹ s⁻¹
Km (purified protein [7]): 153 µM
kcat (purified protein [7]): 0.0457 s⁻¹
kcat/Km (purified protein [7]): 298 M⁻¹ s⁻¹
